According to doi:10.1101/2021.03.20.21254037:

Biological target: truncated human ACE2 ectodomain (residues 19-613), AviTagged, biotinylated (human) (UniProt Q9BYF1)
Experiment: BLI

“SARS-CoV-2 RBD natural variant Q493L (from UniProt P0DTC2 319-541) (domain or fragment)” gave a t½ (complex half-time) of 3.52 min.
With “SARS-CoV-2 RBD natural variant N439K (from UniProt P0DTC2 319-541) (domain or fragment)” the t½ (complex half-time) was 1.85 min.
“SARS-CoV-2 RBD natural variant N501Y (from UniProt P0DTC2 319-541) (domain or fragment)” gave a t½ (complex half-time) of 5.49 min.
“SARS-CoV-2 RBD wild type (WHU1 isolate, amino acids 319-541) (from UniProt P0DTC2 319-541) (domain or fragment)” showed a t½ (complex half-time) of 1.4 min.
With “SARS-CoV-2 RBD natural variant S477N (from UniProt P0DTC2 319-541) (domain or fragment)” the t½ (complex half-time) was 2.68 min.
